Experimental data: publication PMC5890177, “Selective Detection of Lysozyme Biomarker Utilizing Large Area Chemical Vapor Deposition-Grown Graphene-Based Field-Effect Transistor”

Target: lysozyme (chicken (egg white), UniProt P00698 19-147)
Assay: square wave voltammetry (electrochemical aptasensor); 0.01x PBS; peak current falls with lysozyme; 0.01x PBS (stock dilutions in 0.1 mM phosphate-buffered solution, pH 7.4), 30 min incubation, then rinse in 0.01x PBS and DI water; chip pretreated with Tween 20; binding temperature not stated
Settings: protein: commercial; label: methylene blue

Chain of lysozyme (P00698 19-147): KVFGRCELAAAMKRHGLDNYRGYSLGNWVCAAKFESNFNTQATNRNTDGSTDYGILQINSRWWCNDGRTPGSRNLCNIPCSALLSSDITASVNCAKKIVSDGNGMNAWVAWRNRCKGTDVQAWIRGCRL

B1: MB-labelled thiolated anti-lysozyme aptamer (ssDNA)
DNA: ATCAGGGCTAAAGAGTGCAGAGTTACTTAG
modifications: thiol
B1: binds.
